Measurements taken from patent US10421817 (BEIJING MABWORKS BIOTECH, dated 2019).
Residue numbers refer to the chain shown, from its start.

How the values were obtained:
human Claudin 18.2 = target: T1, human Claudin 18.2 (human); assay: FACS on HEK-293A cells expressing human Claudin 18.2
T1 construct: Overexpressed on HEK293A or MC38 cells by lentivirus; endogenous on KATO-III and NUGC-4 cells

human Claudin 18.1 = target: T2, human Claudin 18.1 (human, UniProt P56856 1-261); assay: FACS on HEK293A/hClaudin 18.1 cells
T2 construct: Overexpressed on HEK293A cells by lentivirus
T2 sequence (P56856 whole entry): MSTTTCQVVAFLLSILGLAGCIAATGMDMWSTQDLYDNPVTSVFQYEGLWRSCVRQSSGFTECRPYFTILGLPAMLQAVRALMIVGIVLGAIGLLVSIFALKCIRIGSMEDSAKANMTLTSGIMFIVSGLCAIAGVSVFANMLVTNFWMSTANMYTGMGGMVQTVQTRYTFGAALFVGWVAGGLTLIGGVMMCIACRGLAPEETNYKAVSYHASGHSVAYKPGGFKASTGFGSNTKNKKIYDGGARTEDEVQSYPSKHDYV

B1: 18F2-5 (antibody, human IgG1, kappa, V domains shown)
VH: QVQLQQPGAELVRPGASVKLSCKASGYTFTSFWLNWVKQRPGQGLEWIGNIYPSTSYTVYNQKFKDKATLTVDKSSSTAYMQLSSPTSEDSAVYYCTRTWRGNSFDLWGQGTTLTVSS
VL: DIVMTQSPSSLTVTAGEKVTMSCKSNQSLLNSGNQKNYVTWYQQKPGQPPKLLIYWGSTRVRGVPDRFTGSGSGTDFTLTISSVQAEDLAVYYCQNDYTYPFTFGSGTKLEIKR
EC50 (human Claudin 18.2): 0.616 nM

B2: IMAB362 (antibody, V domains shown)
VH: B1 VH with F32Y, L34I, T55D, V59N, T99S, L107Y
VL: B1 VL with N26S, V39L, G57A, V61E, R62S, T99S
EC50 (human Claudin 18.2): 0.634 nM

B3: 18F2-35 (antibody, human IgG1, kappa, V domains shown)
VH: B1 VH with V59I, L107Y
VL: B1 VL with N26S, V39L
EC50 (human Claudin 18.2): 0.509 nM

B4: 18F2-66 (antibody, human IgG1, kappa, V domains shown)
VH: B1 VH with L34I, T55A
VL: B1 VL with N26S, G57S, V61S, R62F
EC50 (human Claudin 18.2): 0.524 nM

B5: 18F2-30 (antibody, human IgG1, kappa, V domains shown)
VH: B1 VH with L107Y
VL: B1 VL with N26S, V61S, R62T
EC50 (human Claudin 18.2): 0.562 nM

B6: 18F2 (antibody, human IgG1, kappa, V domains shown)
VH: B1 VH with L34V, T99S, L107H
VL: B1 VL with N26S
notes: Chimeric full length antibody, mouse variable regions with human IgG1/kappa constant regions; also called clone 18F2; parent clone 18F2
EC50 (human Claudin 18.2): 1.26 nM

B7: 18F2-30-VH5VL0 (antibody, human IgG1, kappa, V domains shown)
VH: QVQLVQSGAEVKKPGASVKVSCKASGYTFTSFWLNWVRQRPGQGLEWIGNIYPSTSYTVYNQKFKDRVTLTVDKSTSTAYMELSSLRSEDTAVYYCTRTWRGNSFDYWGQGTTVTVSS
VL: DIVMTQSPDSLAVSLGERATINCKSSQSLLNSGNQKNYVTWYQQKPGQPPKLLIYWGSTRSTGVPDRFSGSGSGTDFTLTISSLQAEDVAVYYCQNDYTYPFTFGQGTKLEIKR
notes: Humanized, human IgG1/kappa constant regions
binding result (human Claudin 18.1): no binding

B8: 18F2-30-VH7VL0 (antibody, human IgG1, kappa, V domains shown)
VH: B7 VH with R38K, R67K
VL: B7 VL
notes: as for B7
binding result (human Claudin 18.1): no binding

B9: 18F2-5VH0VL0 (antibody, human IgG1, kappa, V domains shown)
VH: B7 VH with R40A, I48M, L70M, V72R, K74T, A79V, T97A, Y107L
VL: B7 VL with S26N, S61V, T62R
notes: Humanized, human IgG1/kappa constant regions; also called 18F2-SVH0VL0
binding result (human Claudin 18.1): no binding

B10: 18F2-5VH4VL0 (antibody, human IgG1, kappa, V domains shown)
VH: B7 VH with A79V, T97A, Y107L
VL: B7 VL with S26N, S61V, T62R
notes: as for B7
binding result (human Claudin 18.1): no binding

B11: 18F2-5VH6VL0 (antibody, human IgG1, kappa, V domains shown)
VH: B7 VH with T76S, R87T, Y107L
VL: B7 VL with S26N, S61V, T62R
notes: as for B7
binding result (human Claudin 18.1): no binding

B12: 18F2-5VH6VL2 (antibody, human IgG1, kappa)
heavy: not shown
light: DIVMTQSPSSLTVSLGEKATINCKSNQSLLNSGNQKNYVTWYQQKPGQPPKLLIYWGSTRVRGVPDRFSGSGSGTDFTLTISSLQAEDLAVYYCQNDYTYPFTFGQGTKLEIKRTVAAPSVFIFPPSDEQLKSGTASVVCLLNNFYPREAKVQWKVDNALQSGNSQESVTEQDSKDSTYSLSSTLTLSKADYEKHKVYACEVTHQGLSSPVTKSFNRGEC
notes: as for B7
binding result (human Claudin 18.1): no binding

B13: 18F2-66VH5VL0 (antibody, human IgG1, kappa, V domains shown)
VH: B7 VH with L34I, T55A, Y107L
VL: B7 VL with G57S, T62F
notes: as for B7
binding result (human Claudin 18.1): no binding

B14: 18F2-35VH3VL0 (antibody, human IgG1, kappa, V domains shown)
VH: B7 VH with R40A, V59I, K74T, A79V, T97A
VL: B7 VL with V39L, S61V, T62R
notes: as for B7
binding result (human Claudin 18.1): no binding

B15: 18F2-35VH6VL0 (antibody, human IgG1, kappa, V domains shown)
VH: B7 VH with V59I, T76S, R87T
VL: B7 VL with V39L, S61V, T62R
notes: as for B7
binding result (human Claudin 18.1): no binding

B16: 18F2-66VH2VL0 (antibody, human IgG1, kappa, V domains shown)
VH: B7 VH with L34I, R40A, T55A, A79V, T97A, Y107L
VL: B7 VL with G57S, T62F
notes: as for B7
binding result (human Claudin 18.1): no binding

B17: 18F2-5VH3VL0 (antibody, human IgG1, kappa, V domains shown)
VH: B7 VH with R40A, K74T, A79V, T97A, Y107L
VL: B7 VL with S26N, S61V, T62R
notes: as for B7
binding result (human Claudin 18.1): no binding

B18: 18F2-66VH6VL0 (antibody, human IgG1, kappa, V domains shown)
VH: B7 VH with L34I, T55A, T76S, R87T, Y107L
VL: B7 VL with G57S, T62F
notes: as for B7
binding result (human Claudin 18.1): no binding

B19: 18F2-30-VH3VL0 (antibody, human IgG1, kappa, V domains shown)
VH: B7 VH with R40A, K74T, A79V, T97A
VL: B7 VL
notes: as for B7
binding result (human Claudin 18.1): no binding

B20: 18F2-30-VH6VL0 (antibody, human IgG1, kappa, V domains shown)
VH: B7 VH with T76S, R87T
VL: B7 VL
notes: as for B7
binding result (human Claudin 18.1): no binding

B21: 18F2-35VH2VL0 (antibody, human IgG1, kappa, V domains shown)
VH: B7 VH with R40A, V59I, A79V, T97A
VL: B7 VL with V39L, S61V, T62R
notes: as for B7
binding result (human Claudin 18.1): no binding

B22: 18F2-35VH7VL0 (antibody, human IgG1, kappa, V domains shown)
VH: B7 VH with R38K, V59I, R67K
VL: B7 VL with V39L, S61V, T62R
notes: as for B7
binding result (human Claudin 18.1): no binding

B23: 18F2-5VH6VL3 (antibody, human IgG1, kappa)
heavy: not shown
light: B12 light with N22S, Q106S
notes: as for B7
binding result (human Claudin 18.1): no binding

B24: 18F2-30-VH6VL3 (antibody, human IgG1, kappa)
heavy: not shown
light: B12 light with N22S, N26S, V61S, R62T, Q106S
notes: as for B7
binding result (human Claudin 18.1): no binding

B25: 18F2-66VH4VL0 (antibody, human IgG1, kappa, V domains shown)
VH: B7 VH with L34I, T55A, A79V, T97A, Y107L
VL: B7 VL with G57S, T62F
notes: as for B7
binding result (human Claudin 18.1): no binding

B26: 18F2-30-VH2VL0 (antibody, human IgG1, kappa, V domains shown)
VH: B7 VH with R40A, A79V, T97A
VL: B7 VL
notes: as for B7
binding result (human Claudin 18.1): no binding

B27: 18F2-5VH7VL2 (antibody, human IgG1, kappa)
heavy: not shown
light: B12 light
notes: as for B7
binding result (human Claudin 18.1): no binding

B28: 18F2-35VH5VL0 (antibody, human IgG1, kappa, V domains shown)
VH: B7 VH with V59I
VL: B7 VL with V39L, S61V, T62R
notes: as for B7
binding result (human Claudin 18.1): no binding

B29: 18F2-66VH3VL0 (antibody, human IgG1, kappa, V domains shown)
VH: B7 VH with L34I, R40A, T55A, K74T, A79V, T97A, Y107L
VL: B7 VL with G57S, T62F
notes: as for B7
binding result (human Claudin 18.1): no binding

B30: 18F2-5VH7VL3 (antibody, human IgG1, kappa)
heavy: not shown
light: B12 light with N22S, Q106S
notes: as for B7
binding result (human Claudin 18.1): no binding

B31: 18F2-35VH4VL0 (antibody, human IgG1, kappa, V domains shown)
VH: B7 VH with V59I, A79V, T97A
VL: B7 VL with V39L, S61V, T62R
notes: as for B7
binding result (human Claudin 18.1): no binding

B32: 18F2-66VH0VL0 (antibody, human IgG1, kappa, V domains shown)
VH: B7 VH with L34I, R40A, I48M, T55A, L70M, V72R, K74T, A79V, T97A, Y107L
VL: B7 VL with G57S, T62F
notes: as for B7
binding result (human Claudin 18.1): no binding

B33: 18F2-30-VH4VL0 (antibody, human IgG1, kappa, V domains shown)
VH: B7 VH with A79V, T97A
VL: B7 VL
notes: as for B7
binding result (human Claudin 18.1): no binding

B34: 18F2-5VH5VL0 (antibody, human IgG1, kappa, V domains shown)
VH: B7 VH with Y107L
VL: B7 VL with S26N, S61V, T62R
notes: as for B7
binding result (human Claudin 18.1): no binding

B35: 18F2-66VH6VL3 (antibody, human IgG1, kappa)
heavy: not shown
light: B12 light with N22S, N26S, G57S, V61S, R62F, Q106S
notes: as for B7
binding result (human Claudin 18.1): no binding

B36: 18F2-66VH7VL3 (antibody, human IgG1, kappa)
heavy: not shown
light: B12 light with N22S, N26S, G57S, V61S, R62F, Q106S
notes: as for B7
binding result (human Claudin 18.1): no binding
